The data set is described as follows: label from the status in PepcDB records.

As to “MSAELTRARQQLSQIRGYLRQGKVMPAAQAFQSALVIVLKSPLMRAEREEFERMFADAAHHLNNDAGLRALFPLKIEYLPGSEKELLDIIRELVTAVNNAAVTEAQEQLAALDARKAAGLEQGQAHLDAQEFDAAAAVFRQLSHEFKDDPQLRGEIGERFLKAGRYEEAFDYLAQALDLSPESIHLYNRIGIALRRLGRFETGEKYYLRALQYAGHDPNLLFNLGRLYVDWQRWDKVAKAAAAALRVNPAFDEARKMLEFAERKLQR”, the protein production entry is “failed”. Then “MSAEQDKEPIALKRVRGGDSGLDGLGGPNIQLGSPDKKKRKANTQGSSFPPLSEYAPPPNPNSDHLVAANPFDDSYNTISYKPLPSSNPYLGPGYPGFGGYSTFRMPPHVPPRMSSPYCGPYSLRNQPHPFPQNPLGMGFNRPHAFNFGPHDNSNFGNPPYNNVLTQDINMPGQHFRQGSAENFSQIPPQNVGQVSNPDLASNFAPGNNSNFTSPLETNHSFIPPPNAFGQAKAPLPKQDFTQGATKTPNQNSSTHPPHLNMEDPVNQSNVELKNVNRNNVVQENSRSGSAEATNNHANGTQNKPRQPRGAADLCTPDKSRKFSLLPSRHGHSSSDPVYPCGICTNEVNDDQDAILCEASCQKWFHRICTGMTETAYGLLTAEASAVWGCDTCMADKDVQLMRTREAFGPPAVGGDA”, with “not failed”; and “MSAFINQAAACAGDHAPRSAAQEARRGLRASLPVLLGFIPFALVLGAQATQKGLSVMEVPLMTGLNFGGGSEFTAIRLWTSPPHLLLIAAMSLLVNSRHLLMGAALAPYLRHVPRRRALAALFFMCDESWALALADAQSRATGRISLGYYLGVSAGLYLTWVVFTAIGAALGPVIGDVERYGFDMAFTAVFLVLLRGMWRGLRASRPWLASLAAAALTYRLMPDGAWYVAAGALAGLACAALTVPKEARA”, with “failed”. With “MSAKIKIIPFGGVRENGKNMYAVDVNGGIYILDCGLKYPENELLGIDVVIPDWTYLRENKDRIVAVFLTHGHADAIGALPYFLSEFNVPVFGSEMTIALAKINVADEPKIKKFDDFHVIDEKTEIDFGDVVVSFFSTTHSIPESLGIDLKTDEGQIIYTGDFKFDQTAKPGYQTDYARLGAIGQAGVLALLSDSANAENPAMNASEQSLAESIEETFHYRDSRVIVACVASNILRIQQVFDAAAKTGRKVCLTGKDLEKIVNTAMELGKLTFDADLLVTTDQLDDLAPNEIVILQTGKMGEPIKAIQRMANKQEKDFNIQAGDLVYITTTPSHAMDTTVAQTRDMVYRAGGEVKAISDELNSSGHAYKRDLQLMLNLMKPKFLIPIQGEYRLLNAHADAAMELGIPADHIFILSKGDVLTYAQGDMGLGEGIDVSDTMIDGIGVGDIGNIVLRDRKVLADDGIFIAVVTIDRKKKQIVADPKITSRGFVYVKANKDLMQESSQIIRKAVQNNLDNKEFDWGHLKQDVREHLSHYLFEQTHRRPVILPVIMEVNQHHRRTTKEKPGAGATNEKPVTKSAPKAKAEQTAKPTHKPRRNRKRRPTKKTTTDNA” the entry was “failed”; with “MSALPSYTQNGQTITFAFAQPLQLTIVTPEIIRVFINRGEQGESYAIEGHKIQATDFTIESAGDHYIIRTSALTIHLDSERHLDTFDKDGNALITLEHHHHHH”, “not failed”; with “MSALRTIGALTAREMLKFVRDRSRVLGALAQPLALWLLLGLGFQNTFQPPQGSVGGSYGAFLLPGILALVLLFTAIFSTISIVEERTSGFLQAVLVAPTPRTALVFGTTLGGTLLATVQALLFLGALPLIDLSPGVAGVGMIVAVCLLTGLAFTALGFAIAWRMETTRGFHAVMNLFLLPLWFLSGAMFPVDGAAPVLQVVMWGNPVSYAVSGLRHGFHGFAGTPAALAGPGVCLAVTGAFAVLMTGLAVWQVRRPFFQT”, “failed”.

Take “MSANDSAVNESCHCGGCGSSGNGKFLNETPMLDQLESGPWPSFISGFKALAERTEKPMLRGVLDQLEYSYKTKMGYWKGGLVTVDGYGAGIITRYSMIKDKFPEAAEFHTMRIQPAPGLHYNTTMLRELCDIWEKYGSGIITLHGQTGDIMLQGIEQDKVQACFDELNQKGWDLGGAGAGMRTGVSCIGPGRCDNACYDNLKLHLEALKHFSPQVHRPEWNYKLKFKFSGCPNDCTNAIMRSDLAVIGTWRDSIQIDHDEVKAWIAEKGVDALVNNVINRCPTKAIRLQDGDIDISTRDCVRCMHCINAMSKALSPGKDKGIALLIGGKNTLKVGVNMGSLIVPFMKMETDEDREAFIELIEEIIDWWDDAGLDHERIGETIERVGLKQFLDGVGIEYDINQISRPRDNPYFKAKY”: the protein production result is listed as “failed”. With “MSAPLPLCVIGAGCVGMRHVEVARRSPQIRLTAVVEPVETRRRALAESGLVAVATLEEVPRETRAAIVATPTPDHLATGLAALSRGWAVLVEKPTAGTMDDARVLLGAADRAGLPLYVGHHRRCHPFSRAAREALGGIGDLVGLQGLWSLRKHDSYYAEDWRRQAGAGPLMTNLSHEIDLLRFLVGDMVEVSALTSSARRGLVVPDTAALAFRFADGALGSFLISDAGASPWSFEAACAENPAIAVSGQDYIRITGTAGALEFPSLTRWGRSAPGEIEWSKPLARAAGAGFARVDPLLEQINRFAAVLEGAQDDVLCTGTDGNAALEMTLAAALSGKLGRPVRAHEVPGDYSGI” the entry was “failed”; with “MSAPQVWPWTNQTPPLKGDPTPEPKPQERPTRLKHPLDAPHSVYGVDKWGKGLIVVTEEGEIGLKNPLRPEADAVSLPGILHDLEQRGIRAPMILRISSYLENEICHINDSFADAIARSGYKGAYRGVFPIKVNQQAQVIDRIVEFGHRYSYGLEAGSKPELVIALAHKLATDALIVCNGVKDAEFVRLAILSRKLGFNTVIVLESPKEADTVIAVYEELGIEPLLGVRVKLTNQISGKWEESSGDRSSFGMNTDQLVRVVDKLRDAGLIHCLKLQHSHLGSQVPDVNDVRRAVGEACRYFTELSAEGVPLTHLDLGGGMGVDYTGEKRATENSINYTVEEYCANVVETVAYAMDEAGIDHPTIVTESGRAVVATSSLLVFNVLESTLYDAPTAPGTEPDDHHLVSDLAAVNGYLTPARLQECWNDATFYRNELRALFRRGYVDLRQMARAERIYLSLMARIKTMVAEVEAETDLDAQMEKIADIYHCNFSLFQSLPDVWAIDQLHPIVPLQMLNEAPDRRAVLSDITCDSDGKVDRFILADGVSPSLPVHSLPEDQDYYLGVFFVGAYQETLGDLHNLFGDTNVVTIDLRADGGFDLLHEQEGDTISEVLSYVEYDPADCVAAFRKLVDGAISNGCLKASERKLIIGAYRDSINGYTYYE”, “failed”. Then “MSAQEPWTAATAKGTALKNTTLLKALTIGILSILALIPLGIIMDLTSDREMLYHSVVEEIGRSWGEQQTLSGPALVIPYRYFVMEEEVSNDGKTRREVKRTYQDELVILPKKLALDLDLKHDFRTRGIYQSLVYSAALKGQADFSLNSYDIPNLIALDNKNARLVFGVSSNQAIDKVEKIEIKGDSALLSGSLMSGTGLTTGGLEKGFNQGIQVSEASDFSVNFAMTLRGSQSISALPLGEQTLINIQADWPHPSFKGLLPAEREINAKGFTASWNISHLTRNYPQEFVKSNQSTLTEVVANAILFEPVTHYGKIDRSVKYGLLFIVLTFIMLFIFELGQKTSLSIVQYILVGSAMALFYLLLLSLSEHLAFLQAYLIAACIPVLSVSTYVGSATASLKRGVIVGTMLVSLYAVLYSILQLEDYALLMGTGLLVVVLLILMFVTRHQSKNTAQ”, with “not failed”; and “MSARSLYQDTAVAALRDDLALALCAAAHHGLGEGVCNHFSVALPGQAGAFLLNPRGLMWSEVRAEDIVLVDAAGNKLAGRHEVEPTAMFIHAAIHQVAGKACVLHTHMPYATALTLTEARMLDTTLSQNAMRFHGRVAADRRYNGLALDAAEGERIARAMDGADIAFLGNHGVVVCGERIDYAFDDLYYLERACCAQVLAESSGRPLVPLDAALAASVAGQARSERLQSTLFFEALRRALGLEHHHHHH”, with “failed”; and “MSASAHIAQPDTRQQSRSDTPQAVAALAGRVLLSAIFLLSGVSKLAAPAMMIGYIGSVGLPFPQLALALAVIVEIGGGLALVAGWRTRTVAALLALFSVVTALAFHNALGDQNQFIHFFKNLAMAGGLLQVVAFGAGRFSLDARRR”, with “failed”. Take “MSAVKSVSSFRLASLLRRENDPSAAMKLFRNPDPESTNPKRPFRYSLLCYDIIITKLGGSKMFDELDQVLLHLKTDTRIVPTEIIFCNVINFFGRGKLPSRALHMFDEMPQYRCQRTVKSLNSLLSALLKCGELEKMKERLSSIDEFGKPDACTYNILIHGCSQSGCFDDALKLFDEMVKKKVKPTGVTFGTLIHGLCKDSRVKEALKMKHDMLKVYGVRPTVHIYASLIKALCQIGELSFAFKLKDEAYEGKIKVDAAIYSTLISSLIKAGRSNEVSMILEEMSEKGCKPDTVTYNVLINGFCVENDSESANRVLDEMVEKGLKPDVISYNMILGVFFRIKKWEEATYLFEDMPRRGCSPDTLSYRIVFDGLCEGLQFEEAAVILDEMLFKGYKPRRDRLEGFLQKLCESGKLEILSKVISSLHRGIAGDADVWSVMIPTMCKEPVISDSIDLLLNTVKEDGPLSAMPQC”: the protein production result was “failed”.

Turning to “MSAVVAQTLHVFGLRSHVANNIFYFDEQIIIFPSGNHCVKYNVDQKWQKFIPGSEKSQGMLALSISPNRRYLAISETVQEKPAITIYELSSIPCRKRKVLNNFDFQVQKFISMAFSPDSKYLLAQTSPPESNLVYWLWEKQKVMAIVRIDTQNNPVYQVSFSPQDNTQVCVTGNGMFKLLRFAEGTLKQTSFQRGEPQNYLAHTWVADDKIVVGTDTGKLFLFESGDQRWETSIMVKEPTNGSKSLDVIQESESLIEFPPVSSPLPSYEQMVAASSHSQMSMPQVFAIAAYSKGFACSAGPGRVLLFEKMEEKDFYRESREIRIPVDPQSNDPSQSDKQDVLCLCFSPSEETLVASTSKNQLYSITMSLTEISKGEPAHFEYLMYPLHSAPITGLATCIRKPLIATCSLDRSIRLWNYETNTLELFKEYQEEAYSISLHPSGHFIVVGFADKLRLMNLLIDDIRSFKEYSVRGCGECSFSNGGHLFAAVNGNVIHVYTTTSLENISSLKGHTGKIRSIVWNADDSKLISGGTDGAVYEWNLSTGKRETECVLKSCSYNCVTVSPDAKIIFAVGSDHTLKEIADSLILREISAFDVTYTAIVISHSGRMMFVGTSVGTIRAMKYPLPLQKEFNEYQAHAGPITKVSRTLSPGTQSHTCLLRALFIPSTSQCLFSLLLLSYLFIHHSLNHHLLTMNILFV”, the protein production entry is recorded as “failed”.

For “MSAWTMSDPYPATEAHAQRAAKSSPKSLLDRLLSLVRREPEDREGIKAILEAAHERELLDAESYAMIKGALAVSERTVADIMVPRSRMDLLDISQPLPQLLATIIETAHSRFPVYEDDRDNIIGILLAKDLLRYMLEPALDIRSLVRPAVFIPEVKRLNVLLREFRASRNHLAIVIDEHGGISGLVTMEDVLEQIVGDIEDEFDEDEEESIFPEGENQWRLTASTDISHFNATFATDLPDDEYDSVGGWLGGQLGRIPRRGDSADHDGLHIEVVRADARRALWLRVRRNAGAQPPASAAE”, the protein production result is recorded as “not failed”.

In the case of “MSCGYTGPINEQNKENIKRAIAMHAAARRTRMLQQLREGLQLYRLVDIMEKNKEVCRSHFVFEGGNDQVDSQYIVSHLDPKMSESGTLKHSKEMQILNNFQDFLMELEDGGPEDEEALCVSKVMQWLSGQAHVHLLLSERQAFKITVLFDHTCMERMPDHRICYPVDSAWTQTITFPTAHSTSLNQFKENMRIAVQQGAYFYRV”, the protein production entry is listed as “failed”.

“MSDAAEIRMDAGALNAFLHRAFPEVDPEQMPQVLEVEAGRALLKLPYASRQLRPGGVISGPTMMSLADTAAYAMILARIGEVALSVTTSLNIHFLRGCKPGDLYAEATLLKLGRRIATVDVLMWTQGRERAAAKATVAYAIP”: the protein production result was “failed”.

Source of the values: a protein production outcome set (Wang et al. 2014).
